What is called Kd is the free concentration of one partner at which half of the binding sites on the other are occupied at equilibrium, for simple one-to-one binding. Broadly, the koff is the rate constant with which the complex falls apart. By kon is commonly meant the second-order rate constant of association.

For assay [1], the target named is His6-tagged recombinant PirB (Abcam #ab276923) (mouse) (UniProt P97484). Description: atomic force microscopy (single-molecule force spectroscopy); His6-PirB held on Ni2+-NTA gold-coated model surfaces; AFM tips functionalised with T3SA- virions or σ3 through a PEG linker; virus buffer; koff from Bell-Evans fit of dynamic force spectroscopy, kon from binding probability against contact time (pseudo-first-order), KD calculated from both.

Assay [2] deals with paired immunoglobulin-like receptor B (PirB), expressed on CHO cells (mouse) (UniProt P97484).
Assay [3] shares this target. The source holds these as a separate data set.

Take “reovirus strain T3SA- virions (from UniProt P03528 1-455; P07939 1-365) (complex)”: in assay [1], the Kd was 1.94 nM, the koff was 0.2 s⁻¹ and the kon is 1.03e+08 M⁻¹ s⁻¹.

With “reovirus strain T3SA+ virions (from UniProt P03528 1-455; P07939 1-365) (complex)”, the tyrosine phosphorylation of immunoprecipitated myc-tagged PirB in CHO cells after T3SA+ adsorption (immunoblot with pTyr-specific mAb cocktail) in assay [2] was more than 3 fold. Further, the decrease in infection of primary murine cortical neurons (endogenous PirB) by T3SA+ (100 PFU/cell) after incubation with 5 μg/ml PirB-specific mAb 6C1, IFA in assay [3] is 50%.

These data come from publication PMC10163058.
